Measurements as given in patent US11732048B2, “Anti-axl antagonistic antibodies” (BERGEN TEKNOLOGIOVERFØRING AS, priority 2016, dated 2023).
“Also recorded” adds a separate entry of the source.

Legend:
[1] = target: T1, human Axl (rhAxl-Fc chimera) (Homo sapiens, UniProt P30530); experiment: Biacore kinetic analysis (surface plasmon resonance) on immobilised rhAxl-Fc; format: binding; conditions: rhAxl immobilized on Biacore sensor chip, 25° C., 1:1 Langmuir binding model
T1 construct: Soluble recombinant antigens corresponding to the extracellular domains of members of the human TAM receptor family; Fc; purchased R&D Systems 154-AL
Protocol: Kinetic analysis of murine MAb 10G5 interacting with rhAxl immobilized on the surface of the Biacore sensor chip. Overlay plots of sensograms for different antibody concentrations (0.3-166.7 nM for murine 10G5) are shown. The precise kinetic analysis was performed using BIA evaluation software and curve fitting according to 1:1 Langmuir binding model. […]
Affinity determination of anti-Axl antibody 10G5 was performed at 25° C. by surface plasmon resonance measurements using Biacore 3000 instrument (GE Healthcare). As a solid antigen-coated surface, a sensor chip CM5 with immobilized rhAxl-Fc chimera (R&D Systems, Cat. no. 154-AL) at density 190 RU was used.
For the kinetics measurements, different concentrations of anti-Axl antibodies (from 0.3 to 666.7 nM) in HBS-EP buffer (Biacore, Cat. no. BR-1001-88) were injected at flow rate of 30 μL/min with 3 min injection time followed by 5 min dissociation (buffer alone). After each cycle, the surface was regenerated by 30 sec injection of a regeneration solution (10 mM HCl, 1 M NaCl) at flow rate 50 μL/min.
The kinetic association (on-rate, kon) and dissociation (off-rate, koff) rates were calculated using BIAevaluation software and 1:1 Langmuir binding model. The equilibrium dissociation constant (KD) was calculated as the koff/kon ratio. The half-life (t1/2) of the formed antibody-antigen complexes was calculated as the ln 2/koff ratio. […]

[2] = target: T2, mouse Axl (rmAxl-Fc chimera; Mm-Axl-Fc) (Mus musculus, UniProt Q00993); experiment: Biacore binding analysis on immobilised mouse Axl
T2 construct: The soluble recombinant antigens corresponding to human Axl (rhAxl-Fc chimera; R&D Systems, Cat. no; 154-AL), mouse Axl (rmAxl-Fc chimera; Fc; purchased R&D Systems 854-AX
T2 sequence (Q00993 19-445 limits assumed, change not shown): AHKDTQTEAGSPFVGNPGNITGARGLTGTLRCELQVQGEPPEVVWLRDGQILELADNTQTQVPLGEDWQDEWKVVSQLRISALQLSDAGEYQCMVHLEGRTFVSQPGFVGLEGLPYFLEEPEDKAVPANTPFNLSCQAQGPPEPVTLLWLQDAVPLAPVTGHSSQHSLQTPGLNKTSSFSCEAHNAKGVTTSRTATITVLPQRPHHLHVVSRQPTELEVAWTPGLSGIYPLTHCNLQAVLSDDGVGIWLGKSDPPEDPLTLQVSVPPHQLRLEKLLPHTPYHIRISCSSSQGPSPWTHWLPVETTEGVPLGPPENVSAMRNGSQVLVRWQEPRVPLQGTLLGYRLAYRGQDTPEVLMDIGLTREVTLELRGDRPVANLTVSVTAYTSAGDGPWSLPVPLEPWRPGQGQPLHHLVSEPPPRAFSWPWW
Protocol: The binding experiments were performed using Biacore 3000 instrument (GE Healthcare) at 25° C. The soluble recombinant antigens corresponding to human Axl (rhAxl-Fc chimera; R&D Systems, Cat. no. 154-AL), mouse Axl (rmAxl-Fc chimera; R&D Systems, R&D Systems; Cat. no. 854-AX) and human Tyro3 (rhTyro3/Dtk-Fc chimera; R&D Systems, Cat. no. 859-DK) were immobilized on the surface of CM5 sensor chip using amine coupling at the surface density of 1,308.0, 2,115.9 and 1,429.0 RU, respectively. The Biacore runs were performed in an automatic mode using Binding analysis wizard.
The sample containing MAb 10G5 or recombinant mouse (rm) Axl-ligand Gas6 (R&D Systems, Cat. no. 986-GS/CF) at concentration 10 μg/mL in HBS-EP buffer (GE Healthcare) was injected over the surfaces with immobilized antigens at flow rate of 30 μL/min for 3 min (association) followed by 5 min dissociation.
(§1) Sensor chip with immobilised Axl: Hs-Axl-Fc (638.2 RU), Mm-Axl-Fc (334.5 RU), Rhe-Axl-Fc (350.2 RU)
(§2) All tests were performed in parallel on Hs-Axl-Fc, Mm-Axl-Fc and Rhe-Axl-Fc surfaces.

cyno-Axl (cyno-Axl-Fc) = experiment: Biacore binding analysis on immobilised cynomolgus Axl; set-up: species or system cynomolgus monkey (Macaca fascicularis); conditions: 10 μg/mL in HBS-EP, 25° C.
Chain of cyno-Axl (cyno-Axl-Fc) (as listed by the source): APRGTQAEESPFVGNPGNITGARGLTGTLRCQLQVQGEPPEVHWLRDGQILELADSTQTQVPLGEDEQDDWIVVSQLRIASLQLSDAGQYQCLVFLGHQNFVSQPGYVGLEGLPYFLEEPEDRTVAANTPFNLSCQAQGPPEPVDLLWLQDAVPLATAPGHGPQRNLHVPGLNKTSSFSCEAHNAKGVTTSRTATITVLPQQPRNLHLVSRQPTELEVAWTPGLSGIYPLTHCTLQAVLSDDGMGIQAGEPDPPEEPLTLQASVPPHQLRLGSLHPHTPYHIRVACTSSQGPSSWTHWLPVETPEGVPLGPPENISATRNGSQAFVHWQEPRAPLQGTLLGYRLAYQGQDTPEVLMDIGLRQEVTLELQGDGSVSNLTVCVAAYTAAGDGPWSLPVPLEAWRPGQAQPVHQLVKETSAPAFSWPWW
Protocol: The sequence of Axl receptor from cynomolgus monkey (Macaca fascicularis; SEQ ID NO: 27) was retrieved from WO2009062690A1. Based on the sequence, recombinant extracellular domain of cyno-Axl was generated by transient expression in CHO cells as a fusion protein with human Fc. The recombinant cyno-Axl-Fc was purified to homogeneity using Protein A-Sepharose (GE Healthcare). The binding experiments were performed using Biacore 3000 instrument (GE Healthcare) at 25° C. The soluble recombinant antigens corresponding to human Axl (rhAxl-Fc chimera; R&D Systems, Cat. no. 154-AL) and cyno-Axl were immobilized on the surface of CM5 sensor chip using amine coupling at the surface density of 775 and 880 RU, respectively. The Biacore runs were performed in an automatic mode using Binding analysis wizard.
The sample containing MAb 10G5 or human Axl-specific MAb 5F11 (control) at concentration 10 μg/mL in HBS-EP buffer (GE Healthcare) was injected over the surfaces with immobilized antigens at flow rate of 30 μL/min for 3 min (association) followed by 5 min dissociation.

Hu-Axl-Fc = target: T3, Hu-Axl-Fc (Homo sapiens, UniProt P30530); experiment: Biacore competition binding c10G5 versus YW327.6S2-var (Example 21); conditions: 666.7 nM each, first and second sample
T3 construct: Fc
Protocol: Injections: • Use Flow Cell(s): 2 with 1 as reference • Flow Rate: 30 (μL/min) • Number of Injections: 2 • First Sample: • Injection Time: 3 (min) • Wait After Injection: 2.5 (min) • Second Sample: • Injection Time: 3 (min) • Wait After Injection: 2.5 (min)
The competitive binding analysis was performed by injecting a first sample (MAbs c10G5 or YW327.6S2-var) at a concentration sufficient to reach plateau within 1-2 min followed by injection of MAb YW327.6S2-var as a second sample (FIG. 21A).
In a second part of the of experiment, the antibody YW327.6S2-var was injected as a first sample followed by injection of either antibody YW327.6S2-var or c10G5 as a second sample (FIG. 21B).

[3] = target: T4, Hs-Axl-Fc (immobilized Axl-Fc) (Homo sapiens, UniProt P30530); experiment: Biacore binding competition assays, two injections (Example 22)
T4 construct: Fc
Excerpt: as §1
In this experiment, a first antibody was allowed to bind to saturation. A second antibody was then applied and its ability to bind was monitored.
If the second antibody recognizes the same (or overlapping) epitope as the first antibody then binding will be blocked. If the second antibody recognizes a different epitope then binding will be detected at the same level as if no first antibody was present.
The ability of Gas6 to block antibody binding was also tested, using Gas6 at 10 μg/mL in HBS-EP.
as §2
See FIG. 1 for a list of the pairs that were tested (in this list Contr-1 is incorrectly labeled YW367 instead of YW327.6S2var). All antibodies were at 25 μg/mL in HBS-EP.
• 2. Perform Biacore experiments at 25° C. • 3. In the instrument control software choose Direct Binding, and select settings for two injections as shown below. • 4. […] Store the template & the result file, start the analysis.

Molecule	Off-rate (koff) [1] [s⁻¹]	On-rate (kon) [1] [M⁻¹ s⁻¹]	Binding to mouse Axl [2]	Binding to Axl from cynomolgus monkey (cyno-Axl (cyno-Axl-Fc))	Competition between 10G5 and YW327.6S2 for binding to Axl (Hu-Axl-Fc)	Competition with 1H12 for binding to Axl [3]
murine 10G5: mouse monoclonal anti-human Axl antibody from hybridoma WR-10G5-E5; VH SEQ ID NO: 28, VL SEQ ID NO: 29 (antibody, listed as Mus musculus, V domains shown, (1)..(118) Mus musculus 10G5 VH domain; (1)..(112) Mus musculus 10G5 VL domain) VH: QVQLQQSGAELVRPGASVKLSCKASGYSFTDFYINWVRQRPGQGLEWIARIFPGGDNTYYNEKFKGKATLTAEESSSTAYIQLSSLTSEDSAVYFCARRGLYYAMDYWGQGISVTVSS VL: DVLMTQTPLSLPVSLGDQASISCRSSQSLVHSNGIPYLHWYLQKPGQSPKLLIYRVSNRFSGVPDRFSGSGSGTDFTLKISRVEAEDLGVYFCSQGTHVPPTFGGGTKLEIK	0.000439	829000	no significant binding	bind strongly; also recorded: strong and specific interaction	does not compete	No competition
c10G5: chimeric (mouse variable/human constant) IgG1 antibody with the 10G5 VH and VL (antibody, V domains shown) VH: QVQLQQSGAELVRPGASVKLSCKASGYSFTDFYINWVRQRPGQGLEWIARIFPGGDNTYYNEKFKGKATLTAEESSSTAYIQLSSLTSEDSAVYFCARRGLYYAMDYWGQGISVTVSS VL: DVLMTQTPLSLPVSLGDQASISCRSSQSLVHSNGIPYLHWYLQKPGQSPKLLIYRVSNRFSGVPDRFSGSGSGTDFTLKISRVEAEDLGVYFCSQGTHVPPTFGGGTKLEIK	0.000169	1.64e+06	–	–	–	–
